# Laboratory results taken from publication PMC3419070, “Identification of novel mitosis regulators through data mining with human centromere/kinetochore proteins as group queries” (BMC Cell Biology, 2012).
# T1: purified recombinant 6×His-TRIP13 (human, UniProt Q15645 1-432)
# T1 construct: TRIP13, human AAA-ATPase; full-length cDNA cloned by the Gateway system; The host is probably E. coli: the methods name destination vectors for E. coli or mammalian cells; also called His-tagged TRIP13
# T1 sequence (looked up): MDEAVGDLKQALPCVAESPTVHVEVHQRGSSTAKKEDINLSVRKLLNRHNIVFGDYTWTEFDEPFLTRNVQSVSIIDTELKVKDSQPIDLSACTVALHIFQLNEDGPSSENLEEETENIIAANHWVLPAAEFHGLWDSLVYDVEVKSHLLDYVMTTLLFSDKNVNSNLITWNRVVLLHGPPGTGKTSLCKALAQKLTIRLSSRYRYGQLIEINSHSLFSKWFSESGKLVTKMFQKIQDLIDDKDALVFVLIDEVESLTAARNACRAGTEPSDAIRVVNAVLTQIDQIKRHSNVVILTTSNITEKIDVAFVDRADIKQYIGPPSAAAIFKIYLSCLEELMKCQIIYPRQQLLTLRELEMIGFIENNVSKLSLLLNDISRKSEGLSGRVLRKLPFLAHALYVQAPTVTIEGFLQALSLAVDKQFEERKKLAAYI
# Target: T1, purified recombinant 6×His-TRIP13
# Experiment: pull-down; in vitro binding of recombinant proteins: His-TRIP13 at 100 nM, GST-p31^comet at increasing concentrations; Probond nickel beads, washed; blots with anti-6×His and anti-GST antibodies
# Conditions: both partners purified
binder,measurement,value
"purified recombinant GST-p31^comet (natural protein, human, UniProt Q15013 1-274, looked up, p31^comet (MAD2L1BP), human mitotic checkpoint silencing protein; full-length cDNA cloned by the Gateway system; The host is probably E. coli: the methods name destination vectors for E. coli or mammalian cells; also called MAD2L1BP) MAAPEAEVLSSAAVPDLEWYEKSEETHASQIELLETSSTQEPLNASEAFCPRDCMVPVVFPGPVSQEGCCQFTCELLKHIMYQRQQLPLPYEQLKHFYRKPSPQAEEMLKKKPRATTEVSSRKCQQALAELESVLSHLEDFFARTLVPRVLILLGGNALSPKEFYELDLSLLAPYSVDQSLSTAACLRRLFRAIFMADAFSELQAPPLMGTVVMAQGHRNCGEDWFRPKLNYRVPSRGHKLTVTLSCGRPSIRTTAWEDYIWFQAPVTFKGFRE",binding result,binds
